{
  "source": "paper PMC8564726",
  "about": "“Heterodimerization of H3K9 histone methyltransferases G9a and GLP activates methyl reading and writing capabilities” (The Journal of Biological Chemistry, 2021)",
  "key": {"[1]": {"biological_target": "fluoresceinated H3(1-20) K9me2 peptide, P68431", "assay": "fluorescence polarisation; fluoresceinated H3(1-20) K9me1 or K9me2 peptide at 150 nM, enzyme titrated; 100 mM Tris pH 8, 100 mM KCl, 1 mM MgCl2, 20 μM ZnSO4, 10 mM BME, 0.1% NP-40"}, "[2]": {"biological_target": "unmethylated mononucleosome (H3K9me0), 147 bp 601 DNA 5'-fluorescein-labeled", "assay": "fluorescence polarisation; core mononucleosomes (147 bp 601 DNA, 5' fluorescein) at 150 nM, enzyme titrated; 100 mM Tris pH 8, 100 mM KCl, 1 mM MgCl2, 20 μM ZnSO4, 10 mM BME, 0.1% NP-40"}, "[3]": {"biological_target": "N-terminally 6xHis-tagged G9a ANK-SET", "assay": "pull-down; His:G9a coexpressed with MBP:G9a or MBP:GLP in E. coli; sequential cobalt and amylose resin purification; SyPRO Red stained bands quantified"}, "[4]": {"biological_target": "G9a ANK-SET, tags removed", "assay": "SEC-MALS; His and MBP tags removed; injected at 10 μM, Shodex KW804 column, 0.4 ml per minute"}},
  "data": [
    {"binder": "GLP ANK-SET homodimer (complex, modifications not checked) QEKSLAAEGRADTTTGSIAGAPEDERSQSTAPQAPECFDPAGPAGLVRPTSGLSQGPGKETLESALIALDSEKPKKLRFHPKQLYFSARQGELQKVLLMLVDGIDPNFKMEHQSKRSPLHAAAEAGHVDICHMLVQAGANIDTCSEDQRTPLMEAAENNHLDAVKYLIKAGAQVDPKDAEGSTCLHLAAKKGHYDVVQYLLSNGQMDVNCQDDGGWTPMIWATEYKHVELVKLLLSKGSDINIRDNEENICLHWAAFSGCVDIAEILLAAKCDLHAVNIHGDSPLHIAARENRYDCVVLFLSRDSDVTLKNKEGETPLQCASLSSQVWSALQMSKALRDSAPDKPVAVEKTVSRDIARGYERIPIPCVNAVDSELCPTNYKYVSQNCVTSPMNIDRNITHLQYCVCVDDCSSSTCMCGQLSMRCWYDKDGRLLPEFNMAEPPLIFECNHACSCWRNCRNRVVQNGLRARLQLYRTQDMGWGVRSLQDIPLGTFVCEYVGELISDSEADVREEDSYLFDLDNKDGEVYCIDARFYGNVSRFINHHCEPNLVPVRVFMSHQDLRFPRIAFFSTRLIQAGEQLGFDYGERFWDVKGKLFSCRCGSSKCRHSSAALAQRQASAAQEPQENGLPDTSSAAAADPL", "values": [
      {"measurement": "fold reduction of binding (reference not clearly named)", "setting": "[1]", "value": 12.5, "unit": "times"},
      {"measurement": "Kd", "setting": "[2]", "value": 26.3, "unit": "µM"}
    ]},
    {"binder": "G9a ANK-SET homodimer (complex, modifications not checked) DAPGRADTSQPSARMRGHGEPRRPPCDPLADTIDSSGPSLTLPNGGCLSAVGLPPGPGREALEKALVIQESERRKKLRFHPRQLYLSVKQGELQKVILMLLDNLDPNFQSDQQSKRTPLHAAAQKGSVEICHVLLQAGANINAVDKQQRTPLMEAVVNNHLEVARYMVQLGGCVYSKEEDGSTCLHHAAKIGNLEMVSLLLSTGQVDVNAQDSGGWTPIIWAAEHKHIDVIRMLLTRGADVTLTDNEENICLHWASFTGSAAIAEVLLNAQCDLHAVNYHGDTPLHIAARESYHDCVLLFLSRGANPELRNKEGDTAWDLTPERSDVWFALQLNRKLRLGVGNRAVRTEKIICRDVARGYENVPIPCVNGVDGEPCPEDYKYISENCETSTMNIDRNITHLQHCTCVDDCSSSNCLCGQLSIRCWYDKDGRLLQEFNKIEPPLIFECNQACSCWRSCKNRVVQSGIKVRLQLYRTAKMGWGVRALQTIPQGTFICEYVGELISDAEADVREDDSYLFDLDNKDGEVYCIDARYYGNISRFINHLCDPNIIPVRVFMLHQDLRFPRIAFFSSRDIRTGEELGFDYGDRFWDIKSKYFTCQCGSEKCKHSAEAIALEQSRLARLDPHPELLPDLSSLPPINT", "values": [
      {"measurement": "Kd", "setting": "[2]", "value": "6 to 7", "unit": "µM"}
    ]},
    {"binder": "G9a-GLP ANK-SET heterodimer (complex, modifications not checked) chain 1: DAPGRADTSQPSARMRGHGEPRRPPCDPLADTIDSSGPSLTLPNGGCLSAVGLPPGPGREALEKALVIQESERRKKLRFHPRQLYLSVKQGELQKVILMLLDNLDPNFQSDQQSKRTPLHAAAQKGSVEICHVLLQAGANINAVDKQQRTPLMEAVVNNHLEVARYMVQLGGCVYSKEEDGSTCLHHAAKIGNLEMVSLLLSTGQVDVNAQDSGGWTPIIWAAEHKHIDVIRMLLTRGADVTLTDNEENICLHWASFTGSAAIAEVLLNAQCDLHAVNYHGDTPLHIAARESYHDCVLLFLSRGANPELRNKEGDTAWDLTPERSDVWFALQLNRKLRLGVGNRAVRTEKIICRDVARGYENVPIPCVNGVDGEPCPEDYKYISENCETSTMNIDRNITHLQHCTCVDDCSSSNCLCGQLSIRCWYDKDGRLLQEFNKIEPPLIFECNQACSCWRSCKNRVVQSGIKVRLQLYRTAKMGWGVRALQTIPQGTFICEYVGELISDAEADVREDDSYLFDLDNKDGEVYCIDARYYGNISRFINHLCDPNIIPVRVFMLHQDLRFPRIAFFSSRDIRTGEELGFDYGDRFWDIKSKYFTCQCGSEKCKHSAEAIALEQSRLARLDPHPELLPDLSSLPPINT chain 2: QEKSLAAEGRADTTTGSIAGAPEDERSQSTAPQAPECFDPAGPAGLVRPTSGLSQGPGKETLESALIALDSEKPKKLRFHPKQLYFSARQGELQKVLLMLVDGIDPNFKMEHQSKRSPLHAAAEAGHVDICHMLVQAGANIDTCSEDQRTPLMEAAENNHLDAVKYLIKAGAQVDPKDAEGSTCLHLAAKKGHYDVVQYLLSNGQMDVNCQDDGGWTPMIWATEYKHVELVKLLLSKGSDINIRDNEENICLHWAAFSGCVDIAEILLAAKCDLHAVNIHGDSPLHIAARENRYDCVVLFLSRDSDVTLKNKEGETPLQCASLSSQVWSALQMSKALRDSAPDKPVAVEKTVSRDIARGYERIPIPCVNAVDSELCPTNYKYVSQNCVTSPMNIDRNITHLQYCVCVDDCSSSTCMCGQLSMRCWYDKDGRLLPEFNMAEPPLIFECNHACSCWRNCRNRVVQNGLRARLQLYRTQDMGWGVRSLQDIPLGTFVCEYVGELISDSEADVREEDSYLFDLDNKDGEVYCIDARFYGNVSRFINHHCEPNLVPVRVFMSHQDLRFPRIAFFSTRLIQAGEQLGFDYGERFWDVKGKLFSCRCGSSKCRHSSAALAQRQASAAQEPQENGLPDTSSAAAADPL", "values": [
      {"measurement": "Kd", "setting": "[2]", "value": "6 to 7", "unit": "µM"}
    ]},
    {"binder": "N-terminally Maltose-Binding Protein tagged G9a ANK-SET (domain or fragment) DAPGRADTSQPSARMRGHGEPRRPPCDPLADTIDSSGPSLTLPNGGCLSAVGLPPGPGREALEKALVIQESERRKKLRFHPRQLYLSVKQGELQKVILMLLDNLDPNFQSDQQSKRTPLHAAAQKGSVEICHVLLQAGANINAVDKQQRTPLMEAVVNNHLEVARYMVQLGGCVYSKEEDGSTCLHHAAKIGNLEMVSLLLSTGQVDVNAQDSGGWTPIIWAAEHKHIDVIRMLLTRGADVTLTDNEENICLHWASFTGSAAIAEVLLNAQCDLHAVNYHGDTPLHIAARESYHDCVLLFLSRGANPELRNKEGDTAWDLTPERSDVWFALQLNRKLRLGVGNRAVRTEKIICRDVARGYENVPIPCVNGVDGEPCPEDYKYISENCETSTMNIDRNITHLQHCTCVDDCSSSNCLCGQLSIRCWYDKDGRLLQEFNKIEPPLIFECNQACSCWRSCKNRVVQSGIKVRLQLYRTAKMGWGVRALQTIPQGTFICEYVGELISDAEADVREDDSYLFDLDNKDGEVYCIDARYYGNISRFINHLCDPNIIPVRVFMLHQDLRFPRIAFFSSRDIRTGEELGFDYGDRFWDIKSKYFTCQCGSEKCKHSAEAIALEQSRLARLDPHPELLPDLSSLPPINT", "values": [
      {"measurement": "stoichiometry N (MBP protein per His:G9a)", "setting": "[3]", "value": 1}
    ]},
    {"binder": "N-terminally Maltose-Binding Protein tagged GLP ANK-SET (domain or fragment, modifications not checked) QEKSLAAEGRADTTTGSIAGAPEDERSQSTAPQAPECFDPAGPAGLVRPTSGLSQGPGKETLESALIALDSEKPKKLRFHPKQLYFSARQGELQKVLLMLVDGIDPNFKMEHQSKRSPLHAAAEAGHVDICHMLVQAGANIDTCSEDQRTPLMEAAENNHLDAVKYLIKAGAQVDPKDAEGSTCLHLAAKKGHYDVVQYLLSNGQMDVNCQDDGGWTPMIWATEYKHVELVKLLLSKGSDINIRDNEENICLHWAAFSGCVDIAEILLAAKCDLHAVNIHGDSPLHIAARENRYDCVVLFLSRDSDVTLKNKEGETPLQCASLSSQVWSALQMSKALRDSAPDKPVAVEKTVSRDIARGYERIPIPCVNAVDSELCPTNYKYVSQNCVTSPMNIDRNITHLQYCVCVDDCSSSTCMCGQLSMRCWYDKDGRLLPEFNMAEPPLIFECNHACSCWRNCRNRVVQNGLRARLQLYRTQDMGWGVRSLQDIPLGTFVCEYVGELISDSEADVREEDSYLFDLDNKDGEVYCIDARFYGNVSRFINHHCEPNLVPVRVFMSHQDLRFPRIAFFSTRLIQAGEQLGFDYGERFWDVKGKLFSCRCGSSKCRHSSAALAQRQASAAQEPQENGLPDTSSAAAADPL", "values": [
      {"measurement": "stoichiometry N (MBP protein per His:G9a)", "setting": "[3]", "value": 1}
    ]},
    {"binder": "GLP ANK-SET, tags removed (domain or fragment, modifications not checked) QEKSLAAEGRADTTTGSIAGAPEDERSQSTAPQAPECFDPAGPAGLVRPTSGLSQGPGKETLESALIALDSEKPKKLRFHPKQLYFSARQGELQKVLLMLVDGIDPNFKMEHQSKRSPLHAAAEAGHVDICHMLVQAGANIDTCSEDQRTPLMEAAENNHLDAVKYLIKAGAQVDPKDAEGSTCLHLAAKKGHYDVVQYLLSNGQMDVNCQDDGGWTPMIWATEYKHVELVKLLLSKGSDINIRDNEENICLHWAAFSGCVDIAEILLAAKCDLHAVNIHGDSPLHIAARENRYDCVVLFLSRDSDVTLKNKEGETPLQCASLSSQVWSALQMSKALRDSAPDKPVAVEKTVSRDIARGYERIPIPCVNAVDSELCPTNYKYVSQNCVTSPMNIDRNITHLQYCVCVDDCSSSTCMCGQLSMRCWYDKDGRLLPEFNMAEPPLIFECNHACSCWRNCRNRVVQNGLRARLQLYRTQDMGWGVRSLQDIPLGTFVCEYVGELISDSEADVREEDSYLFDLDNKDGEVYCIDARFYGNVSRFINHHCEPNLVPVRVFMSHQDLRFPRIAFFSTRLIQAGEQLGFDYGERFWDVKGKLFSCRCGSSKCRHSSAALAQRQASAAQEPQENGLPDTSSAAAADPL", "values": [
      {"measurement": "stoichiometry N", "setting": "[4]", "value": 1, "unit": "GLP per G9a"}
    ]}
  ]
}
